Values joined by “and” are separate entries in the source; they are usually repeats but may differ in a detail not shown here. Equal values may be shown once.
Key:
[1] = biological target: T1, NMR invisible oligomeric species of Aβ (1–40) (Homo sapiens, UniProt P05067); experiment: 15N-R2 and 1HN-R2 transverse relaxation; format: binding
[2] = biological target: T1, NMR invisible oligomeric species of Aβ (1–40); format: binding
^15N-labeled Aβ(1–40) = ^15N-labeled Aβ(1–40) (Homo sapiens, UniProt P05067); experiment: Intermolecular paramagnetic relaxation enhancement; format: binding
[3] = Dynamic light scattering / transmission EM of equilibrated samples; format: physicochemical; settings: equilibrated 150 and 300 µM samples
[4] = 150 µM total; 50 mM HEPES, pH 6.8, 10°C

T1 sequence (P05067 672-711 limits assumed): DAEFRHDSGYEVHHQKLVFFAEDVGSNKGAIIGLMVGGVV
^15N-labeled Aβ(1–40), sequence (P05067 672-711 limits assumed): as above

Row | Substance | konapp (apparent first order rate constant, monomer to oligomer) ([1]; 300 µM total, pH 6.8, 10°C) | 1HN-R1 of monomer ([1]; Aβ(1–40) monomer, 10°C) [s⁻¹] | timescale of monomer-oligomer dynamic equilibrium [2] [ms] | fraction of oligomers ([2]; 60 µM) | effect of off-resonance saturation pulse on amide signal intensity ([2]; 60 µM, until pulse approaches resonances of the protein) | effect of CW pulse far off-resonance on amide resonances ([2]; 300 µM, RF 180 and 350 Hz) | fraction of peptide within dark oligomeric state exchanging with free monomer ([2]; abstract, concentration not specified) | peptides within the oligomer undergoing exchange with free monomer, 1 in about N ([2]; from fex) | mobility of N-terminal 9 residues upon association with oligomer ([2]; from regional specificity of ΔR2) | population of lower order, transient, self-associated states (^15N-labeled Aβ(1–40); if present, or exchange is slow on the PRE time scale (< ca. 1 ms)) | presence of aggregates by dynamic light scattering [3] | morphology by transmission EM ([3]; negatively stained, >3 weeks) | monomer concentration at pseudo-equilibrium [4] [µM] | intermolecular PREs, in words (^15N-labeled Aβ(1–40); 100 µM U-[15N]-Aβ(1–40) + 170 µM spin-labeled F20C variant)
1 | Aβ(1–40): amyloid β (Aβ) peptide (1–40), uniformly 15N-labeled, prepared from NaOH treated stocks to remove fibril seeds | 3.1 s^−1 and ~ 3 s^−1 | 1 | 10 to 15 | negligible | no effect on the signal intensity of the amide resonances | uniformly attenuated | ~ 3% | about 30 | remain highly mobile | 1–2% | presence of large polydisperse aggregates was confirmed | elongated morphologically disordered non-fibrillar aggregates with possibly some small needle-like fibrils present | 105 | –
2 | F20C: single-cysteine variant Aβ(1–40), F20C mutation in the center of the peptide, conjugated to a nitroxide spin-label or a diamagnetic analogue | – | – | – | – | – | – | – | – | – | – | – | – | – | essentially no intermolecular PREs were observed

Reference: article PMC2915839 (Journal of the American Chemical Society, 2010)
